Reference: article PMC8939767 (Science Translational Medicine, 2022)

Target: SARS-CoV-2 spike S2P (soluble S trimer with two proline mutations) (SARS-CoV-2, Wuhan reference, UniProt P0DTC2, stabilised)
Experiment: BLI; […] (AHC) sensors, […], association 120 s, […]
Settings: both partners purified

B1: CC40.8 broadly neutralizing antibody (IgG) (antibody, V domains shown)
VH: EVQLLESGGGLVQPGGSLRLSCAASGFTFSSYVMTWARQAPGKGLEWVSAISGTGYTYYADSVKGRFTVSRDNSKNTLFLQMSSLRAEDTAVYYCAITMAPVVWGQGTTVTVSS
VL: SYELTQPPSVSVSPGQTARITCSGDALPKRYAYWYQQKSGQAPILVIYEDKKRPSGIPERLSGSKSGTVATLTISGAQVEDEADYYCYSTDSSGNHAVFGGGTQLTVL
notes: also called CC40.8 bnAb; CC40.8 mAb
  binding result: binds
